# Laboratory results as given in patent US20110009474A1, “SIRTUIN BASED METHODS AND COMPOSITIONS FOR TREATING BETA-CATENIN-RELATED CONDITIONS” (President and Fellows of Harvard College, priority 2007, published 2011).
# Biological target: endogenous β-catenin (human) (UniProt P35222)
# Experiment: cell-based or functional assay
# Chain of endogenous β-catenin (human) (P35222 2-781 limits assumed): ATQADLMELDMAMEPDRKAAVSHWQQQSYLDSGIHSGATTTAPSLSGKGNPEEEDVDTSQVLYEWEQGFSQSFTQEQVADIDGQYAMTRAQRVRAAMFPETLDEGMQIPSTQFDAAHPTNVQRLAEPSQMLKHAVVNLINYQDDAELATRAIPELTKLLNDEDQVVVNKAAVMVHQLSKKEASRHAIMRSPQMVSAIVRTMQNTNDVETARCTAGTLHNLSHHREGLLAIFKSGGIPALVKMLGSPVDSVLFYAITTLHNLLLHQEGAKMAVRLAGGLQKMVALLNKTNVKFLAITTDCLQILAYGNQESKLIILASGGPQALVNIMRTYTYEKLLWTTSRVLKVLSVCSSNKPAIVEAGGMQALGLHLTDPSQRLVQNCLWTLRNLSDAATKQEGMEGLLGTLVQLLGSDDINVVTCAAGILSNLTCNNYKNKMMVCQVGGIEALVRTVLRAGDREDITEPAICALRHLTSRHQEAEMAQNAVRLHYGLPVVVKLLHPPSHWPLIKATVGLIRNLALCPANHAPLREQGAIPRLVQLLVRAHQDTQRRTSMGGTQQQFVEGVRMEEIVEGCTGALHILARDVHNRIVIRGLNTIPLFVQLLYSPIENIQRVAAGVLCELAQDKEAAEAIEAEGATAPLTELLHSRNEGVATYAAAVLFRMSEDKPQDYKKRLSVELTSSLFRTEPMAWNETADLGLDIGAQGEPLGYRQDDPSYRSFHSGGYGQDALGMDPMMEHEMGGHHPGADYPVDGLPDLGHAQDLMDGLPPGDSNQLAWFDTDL
substance,measurement,value
SIRT1 overexpressed from pBABE-Puro-hSir2(SIRT1) (from UniProt Q96EB6 2-747),fold decrease in Super8XTopflash-Luciferase-PEST reporter activity in DLD1 cells,2 fold
